Data reported in patent US20080014203A1 (published 2008).
Changes are numbered by the printed parent chain.

B1: <IGF-1R>HUMAB Clone 18 (antibody 18) (antibody, V domains shown)
VH: QVELVESGGGVVQPGRSQRLSCAASGFTFSSYGMHWVRQAPGKGLEWVAIIWFDGSSTYYADSVRGRFTISRDNSKNTLYLQMNSLRAEDTAVYFCARELGRRYFDLWGRGTLVSVSS
VL: EIVLTQSPATLSLSPGERATLSCRASQSVSSYLAWYQQKPGQAPRLLIYDASKRATGIPARFSGSGSGTDFTLTISSLEPEDFAVYYCQQRSKWPPWTFGQGTKVESK
B2: <IGF-1R>HUMAB Clone 22 (antibody 22) (antibody, V domains shown)
VH: VQLVESGGGVVQPGRSLRLSCAASGFTFSSYGMHWVRQAPGKGLEWMAIIWFDGSSKYYGDSVKGRFTISRDNSKNTLYLQMNSLRADDTAVYYCARELGRRYFDLWGRGTLVTVSS
VL: B1 VL with K53N, S107I

How the values were obtained:
[1] = biological target: IGF-I receptor (IGF-IR) on tumor cells (HT29, NCI H322M) or on 3T3 cells transfected with IGF-IR (human) (UniProt P08069); test: cell-based or functional assay
[2] = biological target: T1, IGF-IR extracellular domain (human, UniProt P08069 31-935); test: SPR (BIACORE 3000); antibody captured by anti-human Fcγ antibody, IGF-IR extracellular domain in solution
T1 construct: extracellular domain; also called IGF-1R; insulin-like growth factor I receptor

[3] = biological target: T2, IGF-I receptor (IGF-IR) on tumor cells (HT29, NCI H322M) or on 3T3 cells transfected with IGF-IR (human, UniProt P08069 31-736; P08069 741-1367, Natural receptor on cells: glycosylated, disulfide-linked alpha2-beta2 heterotetramer. One alpha and one beta chain are given.); test: displacement of I^125-labeled IGF-I from human tumor cells expressing IGF-IR (HT29, NCI H322M), scintillation counting
T2 construct: also called IGF-1R

Molecule | Akt/PKB phosphorylation without IGF-I ligand (Western blot) [1] [nM] | Kd [2] [pM] | koff [2] [s⁻¹] | kon [2] [M⁻¹ s⁻¹] | IC50 [3] [pM]
αIR3 (antibody) | > 5 |  |  |  | 
B1 |  | 0.695 | 1.03e-07 | 149000 | 300
B2 |  | 656 | 9.64e-05 | 147000 | 
